How the values were obtained:
Test in all cases: cell-based or functional assay
[1] = molecular target: HIV-1 Env of isolate 92UG001 (HIV-1)
[2] = molecular target: HIV-1 Env of isolate 92UG005 (HIV-1)
[3] = molecular target: HIV-1 Env of isolate 93UG077 (HIV-1)
[4] = molecular target: HIV-1 Env of isolate 92WR009 (HIV-1)
[5] = molecular target: HIV-1 Env of isolate MG RM-D-022 (HIV-1)
[6] = molecular target: HIV-1 Env of isolate MGRM-C-004 (subtype C) (HIV-1)
[7] = molecular target: HIV-1 Env of isolate VLGCB3 (subtype B) (HIV-1)
[8] = molecular target: HIV-1 Env of isolate SF162 (subtype B) (HIV-1) (UniProt P19550)
[9] = molecular target: HIV-1 Env of isolate MG RM-D-004 (HIV-1)
[10] = molecular target: HIV-1 envelope glycoprotein (Env) of isolate MGRM-C-012 (HIV-1)
[11] = molecular target: HIV-1 Env of isolate PVO.4 (subtype B) (HIV-1)
[12] = molecular target: HIV-1 Env of isolate MGRM-A-008 (subtype A) (HIV-1)
[13] = molecular target: HIV-1 Env of isolate MGRM-C-001 (subtype C) (HIV-1)
[14] = molecular target: HIV-1 Env of isolate MGRM-AG-001 (subtype AG) (HIV-1)
[15] = molecular target: HIV-1 Env of isolate MGRM-AG-008 (subtype AG) (HIV-1)
[16] = molecular target: HIV-1 Env of isolate CAAN.A2 (subtype B) (HIV-1)
[17] = molecular target: HIV-1 envelope glycoprotein (Env) of isolate 93RW029, clade A (HIV-1)
[18] = molecular target: HIV-1 Env of pseudovirus MGRM-G-009 (clade G) (HIV-1)
[19] = molecular target: HIV-1 Env of pseudovirus MGRM-AG-003 (clade CRF_AG) (HIV-1)
[20] = molecular target: HIV-1 Env of isolate MGRM-D-020 (clade D pseudovirus) (HIV-1)
[21] = molecular target: HIV-1 Env of isolate NL43, clade B, on pseudovirus (HIV-1)
[22] = molecular target: HIV-1 Env of isolate 92UG024 (clade D), on pseudovirus (HIV-1)
[23] = molecular target: HIV-1 Env of isolate MGRM-D-019 (clade D pseudovirus) (HIV-1)
[24] = molecular target: HIV-1 Env of isolate MGRM-G-027 (HIV-1)
[25] = molecular target: HIV-1 Env of isolate 93MW959 (clade C) (HIV-1 isolate 93MW959)
[26] = molecular target: HIV-1 Env of isolate 92UG046 (clade D pseudovirus) (HIV-1)
[27] = molecular target: HIV-1 MGRM-C-027 Env (pseudovirus, clade C) (HIV-1)
[28] = molecular target: HIV-1 92RW020 envelope glycoprotein (Env) on pseudovirus (HIV-1)
[29] = molecular target: HIV-1 Env of pseudovirus MGRM-F1-016 (HIV-1)
[30] = molecular target: HIV-1 Env of isolate 98CN009 (CRF07 BC) (HIV-1 isolate 98CN009)
[31] = molecular target: HIV-1 Env of isolate TRJ0.58 (Acute), clade B, on pseudovirus (HIV-1)
[32] = molecular target: HIV-1 Env of isolate MGRM-G-016 (HIV-1)
[33] = molecular target: HIV-1 Env of isolate MGRM-G-025 (HIV-1)
[34] = molecular target: aMLV envelope (negative control pseudovirus)
[35] = molecular target: HIV-1 Env of isolate CAAN.A2 (subtype B pseudovirus) (HIV-1)
[36] = molecular target: HIV-1 Env of isolate 92UG024 (pseudovirus) (HIV-1)
[37] = molecular target: HIV-1 Env of isolate MGRM-D-016 (pseudovirus) (HIV-1)
[38] = molecular target: HIV-1 Env of isolate 98CN006 (pseudovirus) (HIV-1)
[39] = molecular target: HIV-1 Env of isolate MGRM-F1-012 (pseudovirus) (HIV-1)
[40] = molecular target: HIV-1 Env of isolate MGRM-Chronic-B-023 (subtype B pseudovirus) (HIV-1)
[41] = molecular target: HIV-1 Env of isolate MGRM-F1-006 (pseudovirus) (HIV-1)
[42] = molecular target: HIV-1 Env of isolate VLGCB3 (subtype B pseudovirus) (HIV-1)
[43] = molecular target: HIV-1 Env of isolate MGRM-AE-007 (HIV-1)
[44] = molecular target: HIV-1 MGRM-D-001 Env (pseudovirus) (HIV-1)

Sequence of 4993_K13 (PGT-141) (antibody) (VH): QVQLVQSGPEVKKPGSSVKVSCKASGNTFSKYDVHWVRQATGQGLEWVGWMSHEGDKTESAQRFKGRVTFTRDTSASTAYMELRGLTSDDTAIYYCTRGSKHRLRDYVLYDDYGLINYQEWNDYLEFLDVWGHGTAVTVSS
Sequence of 4993_K13 (PGT-141) (antibody) (VL): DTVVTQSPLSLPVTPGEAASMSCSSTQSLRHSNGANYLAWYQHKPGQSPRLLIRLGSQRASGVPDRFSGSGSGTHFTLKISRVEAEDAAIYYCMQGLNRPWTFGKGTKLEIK
Sequence of 5345_I01 (PGT-137) (antibody) (VH): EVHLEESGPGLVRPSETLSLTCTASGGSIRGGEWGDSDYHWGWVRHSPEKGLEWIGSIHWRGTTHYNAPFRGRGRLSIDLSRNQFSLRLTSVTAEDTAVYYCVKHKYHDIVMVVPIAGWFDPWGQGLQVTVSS
Sequence of 5345_I01 (PGT-137) (antibody) (VL): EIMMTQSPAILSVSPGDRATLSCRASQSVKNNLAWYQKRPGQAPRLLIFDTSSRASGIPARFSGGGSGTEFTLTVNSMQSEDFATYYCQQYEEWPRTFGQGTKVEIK
Sequence of 4995_E20 (PGT-142) (antibody) (VH): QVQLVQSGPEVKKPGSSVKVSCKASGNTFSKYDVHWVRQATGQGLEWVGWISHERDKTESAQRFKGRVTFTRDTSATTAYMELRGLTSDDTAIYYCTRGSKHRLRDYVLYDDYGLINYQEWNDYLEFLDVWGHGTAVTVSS
Sequence of 4970_K22 (PGT-144) (antibody) (VH): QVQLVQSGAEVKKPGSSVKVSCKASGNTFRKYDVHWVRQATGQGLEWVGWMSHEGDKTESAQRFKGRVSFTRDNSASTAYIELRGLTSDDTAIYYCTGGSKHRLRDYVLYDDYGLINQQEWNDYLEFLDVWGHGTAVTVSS
Sequence of 4970_K22 (PGT-144) (antibody) (VL): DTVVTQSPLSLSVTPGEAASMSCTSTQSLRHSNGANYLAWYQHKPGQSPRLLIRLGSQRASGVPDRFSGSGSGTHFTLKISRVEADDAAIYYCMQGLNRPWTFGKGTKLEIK
Sequence of 4980_N08 (PGT-143) (antibody) (VH): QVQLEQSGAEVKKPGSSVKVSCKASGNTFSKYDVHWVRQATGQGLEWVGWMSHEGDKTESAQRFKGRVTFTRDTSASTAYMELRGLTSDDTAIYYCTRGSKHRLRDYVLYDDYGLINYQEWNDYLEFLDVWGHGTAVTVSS
Sequence of 4980_N08 (PGT-143) (antibody) (VL): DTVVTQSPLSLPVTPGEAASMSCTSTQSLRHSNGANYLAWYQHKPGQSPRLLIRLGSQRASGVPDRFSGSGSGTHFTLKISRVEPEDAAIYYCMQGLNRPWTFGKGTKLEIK

Substance	IC50, pseudovirus neutralization [22]	IC50 (µg/mL), pseudovirus neutralization [24]	IC50 neutralization [27]	IC50 (µg/mL), pseudovirus neutralization [32]	IC50 (µg/mL), pseudovirus neutralization [33]	IC50 (µg/mL), pseudovirus neutralization [34]	IC50 (µg/mL), pseudovirus neutralization [35]	IC50, pseudovirus neutralization [36]	IC50, pseudovirus neutralization [37]	IC50, pseudovirus neutralization [38]	IC50, pseudovirus neutralization [39]	IC50 (µg/mL), pseudovirus neutralization [40]	IC50, pseudovirus neutralization [41]	IC50 (µg/mL), pseudovirus neutralization [42]	IC50 [43]	other results
5345_I01 (PGT-137) (antibody)																IC50 (µg/mL), pseudovirus neutralization [1]: > 50 µg/mL; IC50 (µg/mL), pseudovirus neutralization [2]: > 50 µg/mL; IC50 [3]: > 50 µg/mL; IC50 [4]: > 50 µg/mL; IC50 (µg/mL), pseudovirus neutralization [5]: > 50 µg/mL; IC50 neutralization [6]: 0.026 µg/mL; IC50 neutralization [7]: 3.36 µg/mL; IC50 neutralization [8]: 3.41 µg/mL; IC50 (µg/mL), pseudovirus neutralization [9]: > 50 µg/mL; IC50 (µg/mL), pseudovirus neutralization [10]: 0.102 µg/mL; IC50 neutralization [11]: > 50 µg/mL; IC50 (µg/mL), pseudovirus neutralization [12]: > 50 µg/mL; IC50 neutralization [13]: 21.5 µg/mL; IC50 (µg/mL), pseudovirus neutralization [14]: > 50 µg/mL; IC50 (µg/mL), pseudovirus neutralization [15]: > 50 µg/mL; IC50 neutralization [16]: > 50 µg/mL
1496_C09 (PG9) (TCN-109) (antibody)	1.91 µg/mL	0.007 µg/mL	2.45 µg/mL	1.36 µg/mL												IC50 (µg/ml), pseudovirus neutralization [17]: 1.19 µg/mL; IC50 [18]: 4.9 µg/mL; IC50 [19]: 9.71 µg/mL; IC50 (µg/ml), pseudovirus neutralization [20]: 2.03 µg/mL; IC50 (µg/ml), pseudovirus neutralization [21]: 0.32 µg/mL; IC50 (µg/mL), pseudovirus neutralization [22]: 1.86 µg/mL; IC50 (µg/ml), pseudovirus neutralization [23]: 0.03 µg/mL; IC50 (µg/ml), pseudovirus neutralization [25]: 0.04 µg/mL; IC50 (µg/ml), pseudovirus neutralization [26]: 0.64 µg/mL; IC50, pseudovirus neutralization [28]: 0.0637 µg/mL; IC50 (µg/ml), pseudovirus neutralization [29]: 0.58 µg/mL; IC50 (µg/ml), pseudovirus neutralization [30]: 1.07 µg/mL; IC50 (µg/ml), pseudovirus neutralization [31]: 0.43 µg/mL
VRC01 (antibody)		0.36 µg/mL		0.063 µg/mL	0.292 µg/mL	> 50 µg/mL										IC50 [5]: > 50 µg/mL
4877_D15 (PGT-122) (antibody)	> 10 µg/mL		0.0388 µg/mL				0.011 µg/mL	> 50 µg/mL	> 50 µg/mL	0.021 µg/mL	> 50 µg/mL	0.01 µg/mL	3.27 µg/mL	0.008 µg/mL	> 50 µg/mL	neutralization IC50 (pseudovirus) [44]: 0.867 µg/mL
4995_E20 (PGT-142) (antibody)		> 50 µg/mL		8.17 µg/mL	> 50 µg/mL	> 50 µg/mL										IC50 (neutralizing activity, pseudovirus) [34]: > 10 µg/mL; IC50 (neutralizing activity, pseudovirus) [44]: > 10 µg/mL
4980_N08 (PGT-143) (antibody)		> 50 µg/mL		7.6 µg/mL	> 50 µg/mL	> 50 µg/mL										IC50 (neutralizing activity, pseudovirus) [34]: > 10 µg/mL; IC50 (neutralizing activity, pseudovirus) [44]: > 10 µg/mL
PGV04 (antibody)		0.125 µg/mL		0.019 µg/mL	1.61 µg/mL	> 50 µg/mL										IC50 [1]: 0.553 µg/mL; IC50 (µg/mL), pseudovirus neutralization [22]: 0.201 µg/mL
4993_K13 (PGT-141) (antibody)		> 50 µg/mL		4.69 µg/mL	> 50 µg/mL	> 50 µg/mL										IC50 (µg/mL), pseudovirus neutralization [2]: > 50 µg/mL; IC50 (neutralizing activity, pseudovirus) [34]: > 10 µg/mL; IC50 (neutralizing activity, pseudovirus) [44]: > 10 µg/mL
4970_K22 (PGT-144) (antibody)		> 50 µg/mL		> 50 µg/mL	> 50 µg/mL	> 50 µg/mL										IC50 (neutralizing activity, pseudovirus) [34]: > 10 µg/mL; IC50 (neutralizing activity, pseudovirus) [44]: > 10 µg/mL
5123_A06 (PGT-125) (antibody)	> 10 µg/mL		> 10 µg/mL				5.47 µg/mL	> 50 µg/mL	0.12 µg/mL	0.201 µg/mL	> 50 µg/mL	> 50 µg/mL	0.035 µg/mL	0.015 µg/mL	0.876 µg/mL	neutralization IC50 (pseudovirus) [44]: 2.31 µg/mL
5141_B17 (PGT-126) (antibody)	> 10 µg/mL		1.14 µg/mL				0.273 µg/mL	> 50 µg/mL	> 50 µg/mL	0.046 µg/mL	0.3 µg/mL	> 50 µg/mL	0.078 µg/mL	0.007 µg/mL	> 50 µg/mL	IC50, pseudovirus neutralization [28]: 0.0046 µg/mL; IC80 (pseudovirus neutralization) [28]: 0.0168 µg/mL; IC90 (pseudovirus neutralization) [28]: 0.0359 µg/mL; IC95 (pseudovirus neutralization) [28]: 0.0728 µg/mL; neutralization IC50 (pseudovirus) [44]: 0.0639 µg/mL
5136_H01 (PGT-131) (antibody)																IC50 (µg/mL), pseudovirus neutralization [1]: > 50 µg/mL; IC50 (µg/mL), pseudovirus neutralization [2]: 0.854 µg/mL; IC50 [3]: > 50 µg/mL; IC50 [4]: 3.12 µg/mL; IC50 (µg/mL), pseudovirus neutralization [5]: > 50 µg/mL; IC50 neutralization [6]: 3.71 µg/mL; IC50 neutralization [7]: > 50 µg/mL; IC50 neutralization [8]: 0.025 µg/mL; IC50 (µg/mL), pseudovirus neutralization [9]: 2.01 µg/mL; IC50 (µg/mL), pseudovirus neutralization [10]: > 50 µg/mL; IC50 neutralization [11]: > 50 µg/mL; IC50 (µg/mL), pseudovirus neutralization [12]: > 50 µg/mL; IC50 neutralization [13]: > 50 µg/mL; IC50 (µg/mL), pseudovirus neutralization [14]: > 50 µg/mL; IC50 (µg/mL), pseudovirus neutralization [15]: > 50 µg/mL; IC50 neutralization [16]: > 50 µg/mL
4858_P08 (PGT-123) (antibody)	> 10 µg/mL		0.0169 µg/mL				0.015 µg/mL	> 50 µg/mL	> 50 µg/mL	0.008 µg/mL	22.2 µg/mL	0.055 µg/mL	6.89 µg/mL	0.004 µg/mL	> 50 µg/mL	neutralization IC50 [28]: 0.0038 µg/mL; neutralization IC80 [28]: 0.0106 µg/mL; neutralization IC90 [28]: 0.0194 µg/mL; neutralization IC95 [28]: 0.0343 µg/mL; neutralization IC50 (pseudovirus) [44]: 0.215 µg/mL
4838_L06 (PGT-121) (antibody)	> 10 µg/mL						0.011 µg/mL	> 50 µg/mL	> 50 µg/mL	0.01 µg/mL	1.91 µg/mL	0.005 µg/mL	5.33 µg/mL	0.005 µg/mL	> 50 µg/mL	
5145_B14 (PGT-127) (antibody)							0.371 µg/mL	> 50 µg/mL	> 50 µg/mL	0.067 µg/mL	> 50 µg/mL	> 50 µg/mL	7.17 µg/mL	0.022 µg/mL	> 50 µg/mL	
